Assay results taken from article PMC12386367, “Importin α3 Is Tolerant to Nuclear Localization Signal Chirality” (International Journal of Molecular Sciences, 2025).
Non-standard residues stand in square brackets, D forms with d. d(pT) = C[C@H](OP(=O)(O)O)[C@@H](N)C(=O)O

B1: D-enantiomeric, isolated NLS region of NUPR1 with phosphorylated Thr68 (peptide)
peptide: Ac-[dY][dT][dN][dR][dP][dS][dP]GG[dH][dE][dR][dK][dL][dV][d(pT)][dK][dL][dQ][dN][dS][dE]-NH2
SMILES: CC(=O)N[C@H](Cc1ccc(O)cc1)C(=O)N[C@@H](C(=O)N[C@H](CC(N)=O)C(=O)N[C@H](CCCNC(=N)N)C(=O)N1CCC[C@@H]1C(=O)N[C@H](CO)C(=O)N1CCC[C@@H]1C(=O)NCC(=O)NCC(=O)N[C@H](Cc1c[nH]cn1)C(=O)N[C@H](CCC(=O)O)C(=O)N[C@H](CCCNC(=N)N)C(=O)N[C@H](CCCCN)C(=O)N[C@H](CC(C)C)C(=O)N[C@@H](C(=O)N[C@@H](C(=O)N[C@H](CCCCN)C(=O)N[C@H](CC(C)C)C(=O)N[C@H](CCC(N)=O)C(=O)N[C@H](CC(N)=O)C(=O)N[C@H](CO)C(=O)N[C@H](CCC(=O)O)C(N)=O)[C@H](C)OP(=O)(O)O)C(C)C)[C@H](C)O
notes: NLS region of NUPR1 (nuclear protein 1), residues 54-74 of the intact protein, made of D-amino acids, Thr68 phosphorylated; Mirror-image (all-D) peptide; also called D-NLS-NUPR1phospho; source: synthetic peptide (Genscript, purity higher than 95%)
B2: D-enantiomeric, isolated NLS region of NUPR1 (residues 54–74 of the intact protein) (peptide)
peptide: Ac-[dY][dT][dN][dR][dP][dS][dP]GG[dH][dE][dR][dK][dL][dV][dT][dK][dL][dQ][dN][dS][dE]-NH2
notes: NLS region of NUPR1 (nuclear protein 1), residues 54-74 of the intact protein, made of D-amino acids; also called D-NLS-NUPR1; wild-type D-NLS-NUPR1; source: synthetic peptide (Genscript, purity higher than 95%)

Legend:
[1] = Translational diffusion NMR (DOSY) of NLS peptides; type: physicochemical; details: ~100 μM peptide
Text: For the four peptides, we measured the experimental value of D for dioxane ranging from (1.2 ± 0.1) × 10^−5 to (1.05 ± 0.02) × 10^−5 cm^2 s^−1 in each solution containing the corresponding peptide; we assumed a hydrodynamic radius of 2.12 Å for dioxane (Table 1) under any condition. […] Furthermore, the values of D were similar for the D- and L-peptides, and the latter were already being described as disordered. Thus, we can conclude that the four D-peptides were monomeric and disordered, like the L-form counterparts, and, then, there was no difference in the hydrodynamic properties of the peptides by changing the enantiomeric nature of the residues.
The NMR spectra were acquired at 10 °C on a Bruker Avance III spectrometer (Bruker GmbH, Mannheim, Germany), equipped with a triple-resonance probe and z-pulse field gradients. All NMR experiments with D-NLS peptides were carried out in 50 mM deuterated Tris buffer (not corrected for isotope effects), pH 7.2. Spectra were calibrated with TSP, by considering pH-dependent changes in its chemical shifts; probe temperature was calibrated with pure methanol.
The typical D-NLS peptide concentrations in DOSY experiments were ~100 μM, and 128 scans were acquired, in which the gradient strength was varied linearly in sixteen steps, between 2 and 95% of the total power of the gradient coil. Measurements of the translational self-diffusion coefficient, D, were performed with the pulsed-gradient spin-echo sequence in the presence of 100% D2O. Details on the experimental conditions and fitting of the resulting curves have been described elsewhere. Gradient strength was calibrated by using the value of D for the residual proton water signal in a sample containing 100% D2O, in a 5 mm tube [23]. Gradient length was 2.5 ms; the time between the two pulse gradients in the sequence was 250 ms; and the recovery delay between the bipolar gradients was 100 μs. The signals from methyl groups between 0.8 and 1.0 ppm were used for peak integration, for all the D-NLS peptides. A final concentration of 1% of dioxane, which was assumed to have a hydrodynamic radius Rh of 2.12 Å [23], was added to the solution of each peptide.

[2] = molecular target: T1, Impα3 (Homo sapiens, UniProt O00629); assay: Biolayer interferometry (BLI) binding to Impα3; details: BLItz, Impα3 immobilized via His-tag (0.25 μM), peptide 1–10 μM, 10 × kinetics buffer, 25 °C, error from pseudo-first order fit, at least two repeats
T1 construct: Human importin α3 isoform (residues 1–521); made in house
T1 sequence (O00629 1-521): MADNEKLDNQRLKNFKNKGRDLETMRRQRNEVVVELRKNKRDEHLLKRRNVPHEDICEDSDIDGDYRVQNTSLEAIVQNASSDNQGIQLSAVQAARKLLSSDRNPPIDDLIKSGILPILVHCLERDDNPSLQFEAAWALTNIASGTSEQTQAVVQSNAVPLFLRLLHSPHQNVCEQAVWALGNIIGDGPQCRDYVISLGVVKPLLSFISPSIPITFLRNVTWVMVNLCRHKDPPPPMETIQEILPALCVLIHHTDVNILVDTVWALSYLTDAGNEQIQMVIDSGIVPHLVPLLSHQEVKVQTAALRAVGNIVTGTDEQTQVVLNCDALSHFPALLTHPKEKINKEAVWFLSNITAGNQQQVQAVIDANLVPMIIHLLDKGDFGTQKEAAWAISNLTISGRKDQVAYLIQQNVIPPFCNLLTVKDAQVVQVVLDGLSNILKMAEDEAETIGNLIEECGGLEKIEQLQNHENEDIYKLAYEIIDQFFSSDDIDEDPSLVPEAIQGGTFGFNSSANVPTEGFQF
Method: (§1) The association (kon) and dissociation (koff) rate constants of the binding of D-NLS peptides to either Impα3 or ∆Impα3 were determined by using a BLItz system (ForteBio, Pall, Barcelona, Spain). The buffer used in the experiments was that recommended by the manufacturer. […] The peptide concentrations were in a range from 1 to 10 μM during the association step. The general scheme of the protein association/dissociation reactions in the BLItz system for the D-NLS peptides was as follows: 30 s of initial baseline acquisition with the 10 × kinetics buffer (provided by the manufacturer); 120 s of loading either Impα3 and ∆Impα3 into the biosensor; 30 s of baseline acquisition with the 10 × kinetics buffer; 120 s of association of each peptide to the biosensor (which had been previously loaded with the importin species); and 120 s of monitoring of the dissociation of each peptide from the biosensor. All experiments were carried out at 25 °C.
(§2) Fittings of the BLI sensorgrams was carried out by using KaleidaGraph, as previously described. The interferometry response during the association step, R(t) (measured in response units, RU), and the binding rate, dR(t)/dt, could be used to evaluate the kinetics of the formation of the complex between Impα3/∆Impα3 and each D-NLS, according to:(2) dR/dt=konD-NLSRmax−Rt−koffR(t) where Rmax is proportional to the total concentration of biosensor-bound importin species; and [D-NLS] represents the concentration of the corresponding D-NLS peptide.
(§3) In Equation (2), R(t) is given by:(3) Rt= Req−Reqe^(−kobs t−t0) where Req is the steady-state (or equilibrium) response obtained at infinite time, when dR(t)/dt = 0, and t0 = 180 s is the time at which the association step between biosensor-immobilized Impα3/∆Impα3 and D-NLS in the solution started. We fitted the experimentally obtained R(t) under any condition as:(4) Rt= Req−Reqe^−kobs t−t0−R’eq(t−t0) where R^′eq was included to consider the lineal drift observed at longer times.
(§4) The dissociation process was always fitted to a single exponential, with R(t) given by:(6) Rt=R1 e^(−kofft−t0)−R^″eq(t−t0) where t0 = 300 is the time at which the dissociation of the D-NLS from the biosensor-bound Impα3/∆Impα3 started in our experimental set-up, R1 is the response level when dissociation starts, and the parameter R^″eq considers the linear drift observed at longer times.
(§5) The experiments were repeated at least twice for each peptide with each importin species.

[3] = molecular target: T2, ∆Impα3 (Homo sapiens, UniProt O00629); assay: Biolayer interferometry (BLI) binding to ∆Impα3; details: BLItz, ∆Impα3 immobilized via His-tag (0.25 μM), peptide 1–10 μM, 10 × kinetics buffer, 25 °C, error from pseudo-first order fit, at least two repeats
T2 construct: IBB-depleted species of Impα3 (residues 64–521 of the intact protein); made in house
T2 sequence (O00629 64-521): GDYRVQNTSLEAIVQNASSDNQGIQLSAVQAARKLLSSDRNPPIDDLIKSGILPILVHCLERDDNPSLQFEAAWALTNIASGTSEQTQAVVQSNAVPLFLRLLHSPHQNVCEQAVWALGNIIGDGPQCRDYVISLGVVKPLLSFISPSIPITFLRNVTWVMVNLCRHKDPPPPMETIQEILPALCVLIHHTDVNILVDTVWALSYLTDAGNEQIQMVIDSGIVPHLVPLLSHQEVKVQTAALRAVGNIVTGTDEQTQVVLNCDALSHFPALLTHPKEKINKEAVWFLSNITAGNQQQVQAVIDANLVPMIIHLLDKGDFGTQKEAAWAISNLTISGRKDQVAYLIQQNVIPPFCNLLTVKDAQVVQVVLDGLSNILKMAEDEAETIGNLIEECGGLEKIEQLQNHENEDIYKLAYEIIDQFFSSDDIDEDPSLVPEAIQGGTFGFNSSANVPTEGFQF
Method: as §1, §2, §3, §4, §5

[4] = molecular target: T3, Human importin α3 isoform (residues 1–521) (human, UniProt O00629 1-521); assay: BLI; His-tagged Impα3 or ∆Impα3 immobilised on His-tag biosensors at 0.25 μM; peptides 1 to 10 μM; BLItz system, manufacturer's 10x kinetics buffer; 25 °C; kon and koff from pseudo-first-order plots; apparent Kd = koff/kon, two-state process assumed; details: both partners purified
T3 construct: human importin α3 (Impα3, KPNA4), residues 1-521, intact protein with the N-terminal IBB domain; The materials list Ni2+-resin, ampicillin and IPTG, so expression in E. coli is surmised; also called Impα3; KPNA4
T3 sequence (looked up): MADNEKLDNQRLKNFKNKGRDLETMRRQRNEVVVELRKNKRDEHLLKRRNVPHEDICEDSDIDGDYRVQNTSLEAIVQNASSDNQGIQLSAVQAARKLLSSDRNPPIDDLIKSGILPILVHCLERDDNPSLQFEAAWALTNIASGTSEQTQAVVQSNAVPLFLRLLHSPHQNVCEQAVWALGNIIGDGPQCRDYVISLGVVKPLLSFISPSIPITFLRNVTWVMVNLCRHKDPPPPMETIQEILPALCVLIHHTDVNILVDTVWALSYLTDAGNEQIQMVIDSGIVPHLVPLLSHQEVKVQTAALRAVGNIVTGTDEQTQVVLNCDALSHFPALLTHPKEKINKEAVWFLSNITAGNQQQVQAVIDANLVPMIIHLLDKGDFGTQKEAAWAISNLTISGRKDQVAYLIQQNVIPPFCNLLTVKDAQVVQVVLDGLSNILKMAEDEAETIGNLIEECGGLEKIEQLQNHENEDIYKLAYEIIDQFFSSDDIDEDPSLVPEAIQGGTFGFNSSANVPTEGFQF

[5] = molecular target: T4, IBB-depleted species of Impα3 (residues 64–521 of the intact protein) (human, UniProt O00629 64-521); assay: as above; details: both partners purified
T4 construct: PDB 5XZX was used only as the model of ∆Impα3 for docking; its limits may differ from 64-521; also called ΔImpα3; truncated importin species
T4 sequence (looked up): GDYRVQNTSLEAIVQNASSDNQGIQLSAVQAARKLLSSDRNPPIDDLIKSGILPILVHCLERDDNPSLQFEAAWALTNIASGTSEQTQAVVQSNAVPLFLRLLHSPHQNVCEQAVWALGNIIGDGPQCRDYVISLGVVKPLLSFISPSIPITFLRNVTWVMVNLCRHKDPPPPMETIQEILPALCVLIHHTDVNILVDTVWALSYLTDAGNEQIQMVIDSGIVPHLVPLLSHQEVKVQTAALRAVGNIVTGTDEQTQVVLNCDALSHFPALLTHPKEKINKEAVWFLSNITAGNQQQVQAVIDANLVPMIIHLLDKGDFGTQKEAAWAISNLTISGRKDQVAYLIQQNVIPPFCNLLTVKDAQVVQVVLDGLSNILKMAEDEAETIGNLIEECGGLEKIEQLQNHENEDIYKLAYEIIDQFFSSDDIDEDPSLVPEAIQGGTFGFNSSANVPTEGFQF

Row | Molecule | Hydrodynamic radius Rh ([1]; D-peptides, by comparison with D of dioxane (1%, Rh 2.12 Å), 50 mM deuterated Tris pH 7.2, 10 °C) | Diffusion coefficient D ([1]; 50 mM deuterated Tris pH 7.2, 100% D2O, 10 °C) | kon [2] | kon [3] | Kd [4] | koff [4] | kon [4] | Kd [5] | koff [5] | kon [5]
1 | YT^54NRPSPGGHERKLVTKLQNSE^74 [D-NLS-NUPR1, D-enantiomeric, isolated NLS region of NUPR1 (residues 54–74 of the intact protein)] | 9 ± 1 Å | 1.78 ± 0.08 cm^2 s^−1 × 10^6 | 50000 ± 10000 M⁻¹ s⁻¹ | 110000 ± 20000 M⁻¹ s⁻¹ |  |  |  |  |  | 
2 | B1 |  |  |  |  | 13 µM | 0.13 s⁻¹ | 10000 M⁻¹ s⁻¹ | 8 µM | 0.05 s⁻¹ | 6000 M⁻¹ s⁻¹
3 | B2 |  |  |  |  |  |  | 50000 M⁻¹ s⁻¹ |  |  | 110000 M⁻¹ s⁻¹
